Assay results taken from the supplement of paper PMC11865577.

How the values were obtained:
Assay in all cases: pull-down binding Z-score (relative to library population); higher = stronger binding
[1] = test system: TO-3-N3-2 (biotin conjugate); conditions: RNA library: Library-2
In short: (§1)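 The RNA library, end-labelled with Cy5 or Cy3, was heat-folded in phosphate/NaCl/KCl buffer, and 1 μg was incubated at 25 °C for 60 min with streptavidin beads carrying 100 pmol of biotin-conjugated small molecule. Hot SDS released the bound RNA, which was then hybridised to a DNA barcode microarray for 20 h at 55.5 °C. For scoring binding, signal from beads alone was subtracted, replicate barcoded probes were averaged after discarding the highest and lowest, and each value was turned into a Z-score from the library mean and standard deviation.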

[2] = test system: TO-N3 (biotin conjugate); conditions: RNA library: Library-2
In short: as §1

[3] = test system: TO-3-N3 (biotin conjugate); conditions: RNA library: Library-2
In short: as §1

[4] = test system: TO-N3-2 (biotin conjugate); conditions: RNA library: Library-2
In short: as §1

[5] = test system: G-clamp-N3 (biotin conjugate); conditions: RNA library: Library-1 (pre-miRNA loops + repeats)
In short: as §1

| Sequence | pull-down binding Z-score [1] | pull-down binding Z-score [2] | pull-down binding Z-score [3] | pull-down binding Z-score [4] | pull-down binding Z-score [5] |
| --- | --- | --- | --- | --- | --- |
| GGCUGCAGGCCCGGCCCCUCUC [hsa-mir-6787] | 0.126 | 1.1 | 0.378 | 1.59 | 0.112 |
| GGCUGCGUGCCACCCGGGCAGCU [hsa-mir-3194] | -0.183 | -0.112 | -0.341 | 0.701 | 1.93 |
| GGCUGCUGGAUUGAAUUAGCUGCA [hsa-mir-1286] | 0.133 | 0.506 | 0.023 | 1.15 | -0.74 |
| GGCUGGACAGGAGAGGGCUCACCCAGG [hsa-mir-6775] | 0.591 | 1.78 | 1.16 | 1.77 | 0.487 |
| GGCUGGCCCCCUGCUUCGUGCCCAUCC [hsa-mir-937] | 0.127 | 0.83 | 0.211 | 1.53 | -1.14 |
| GGCUGGGCAGGCGGAAAGAGGUCUGAACUGCCUCUGCC [hsa-mir-6791] | -0.0685 | -0.0487 | -0.139 | 0.358 | 0.578 |
| GGCUGGGGUCACUGACUCUGCUUCCCCUGCC [hsa-mir-6799] | -0.0439 | -0.0831 | -0.14 | 0.62 | -0.448 |
| GGCUGUGAGCUCUAGCAAUGCCC [hsa-mir-146b] | 0.158 | 0.59 | 0.251 | 1.31 | -0.867 |
| GGCUGUGGCCUAGGGCAAGCCACAAAGCC [hsa-mir-4642] | 0.245 | 0.183 | 0.0577 | 0.939 | 0.507 |
| GGCUUUGGCAUCUAUGAAAGCC [hsa-mir-4755] | -0.302 | 0.507 | 0.45 | -0.233 | 0.33 |
| GGGAACUGGUGAGUUGUACAUAGAAAUGCUUUCUAACUCC [hsa-mir-4499] | -0.00162 | 0.112 | -0.123 | 0.548 | 0.204 |
| GGGAAGGAGAAGGGACGCUUCCC [hsa-mir-3127] | 0.167 | 0.268 | 0.262 | 0.895 | 2.68 |
| GGGACACAUUUGAGCCAAAUGUCCC [hsa-mir-610] | -0.331 | -0.525 | -0.35 | -0.132 | -0.286 |
| GGGACAUUGCGGAGAGGGUCUCACAUUGUCCC [hsa-mir-4646] | 0.999 | 0.925 | 0.894 | 0.488 | 0.248 |
| GGGACGUGUGAUGCUGUGCUUCCU [hsa-mir-3689f] | -0.0333 | -0.185 | -0.469 | 0.502 | -0.338 |
| GGGAGAGGGGCCCAGCUGACCCUCCUGUC [hsa-mir-6879] | 0.744 | 1.68 | 0.755 | 1.89 | -0.867 |
| GGGAGCAUGAACAAUGUUUCUCACUCCC [hsa-mir-3162] | -0.49 | 0.299 | 0.186 | 1.13 | 1.01 |
| GGGAGCGGCCCUCACAUUGAUGGCUCCU [hsa-mir-6727] | -0.052 | 0.313 | 0.264 | 0.257 | 1.42 |
| GGGAGGUAAGAAGUCUCUGACUCCU [hsa-mir-5193] | -0.261 | -0.44 | -0.307 | -0.358 | 0.481 |

| Sequence | pull-down binding Z-score [1] | pull-down binding Z-score [2] | pull-down binding Z-score [3] | pull-down binding Z-score [4] | pull-down binding Z-score [5] |
| --- | --- | --- | --- | --- | --- |
| GGGAGGUAUGAUAUCGUGGUUCCU [hsa-mir-3689e] | 0.567 | 0.8 | 0.555 | 1.03 | -0.485 |
| GGGAGUGGUUCCAUCACGCCUCCUCAC [hsa-mir-483] | -0.147 | 0.311 | -0.089 | 0.658 | -0.668 |
| GGGAUAUUUGCAUUAUACUUAUCC [hsa-mir-5009] | 0.015 | -0.0499 | 0.0656 | -0.458 | -0.101 |
| GGGAUGAGCCCUGGCUCUGUUUCCUAG [hsa-mir-378h] | -0.0124 | 0.385 | 0.0333 | 0.596 | -0.127 |
| GGGCAGAAAUAGAUGGCCU [hsa-mir-4270] | 0.429 | 1 | 1 | 1.07 | 2.97 |
| GGGCAGGGAGGGCAGGGCAGGCUCUGGGGUGGGGGGUCUGUGAGUCAGCCACGGCUC [hsa-mir-4516] | 7.72 | 6.16 | 6.78 | 4.69 | 2.89 |
| GGGCAGGGAGUCAGAGGGGACCGCCC [hsa-mir-4740] | 1.93 | 1.98 | 2.19 | 1.24 | 2.09 |
| GGGCAUUCCGGAUAGGCCGAGAAAGUGUUG [hsa-mir-6723] | 0.568 | 1.67 | 1.45 | 1.42 | 0.79 |
| GGGCCAGUCUGACCGUUUCUAGGCG [hsa-mir-551a] | 0.662 | 1.41 | 0.541 | 1.75 | 0.753 |
| GGGCCAUGUCUGUGAGGGCCCA [hsa-mir-4294] | 0.0026 | 0.221 | -0.261 | 0.936 | 3.2 |
| GGGCCCCAAGACUCGGGGUUU [hsa-mir-4651] | -0.00221 | 0.65 | 0.633 | 0.197 | -0.146 |
| GGGCCGUGCACCCGUGGGCCCC [hsa-mir-1915] | 0.0124 | 0.335 | -0.204 | 1.28 | 1.73 |
| GGGCCUGGGUUUCUGAACAC [hsa-mir-196a-1] | 0.334 | 0.611 | 0.328 | 0.762 | 0.486 |
| GGGCGCCGGCGGCCGGGAGAUCCGCGCUUCCUGAAUCCCGGCCGGCCCGCCCGGCGCCC [hsa-mir-4497] | -0.00137 | 0.447 | 0.25 | 1.22 | -0.232 |
| GGGCGGAACACCCAGCCCC [hsa-mir-4417] | -0.246 | -0.21 | -0.4 | 0.785 | -1.31 |
| GGGCGUGGUGGACAGCGAUGCAUCCC [hsa-mir-6803] | 0.187 | 0.84 | 0.532 | 1.19 | 1.56 |
| GGGCUCGUGAUGGCUGGUGGGCCC [hsa-mir-345] | -0.191 | -0.356 | -0.497 | 0.665 | 3 |
| GGGCUGCCCGGGCCGGUCGACCAGCGCGCCGUAGCUCC [hsa-mir-6724-2_6724-3_6724-1_6724-4] | -0.0157 | 1.03 | 0.0652 | 2.24 | 0.0384 |
